Measured values taken from PMC7251975 (Biochemistry, 2016).

Assays:
[1] = molecular target: rabbit STEAP1 (Six Transmembrane Epithelial Antigen of Prostate member 1) with residues 2-42 truncated (rabbit); assay: SEC
[2] = molecular target: rabbit STEAP1 (Six Transmembrane Epithelial Antigen of Prostate member 1) with residues 2-42 truncated (rabbit); assay: SEC-MALS
[3] = molecular target: rSTEAP1 (Six Transmembrane Epithelial Antigen of Prostate 1) (Oryctolagus cuniculus, UniProt G1SWI4); assay: fluorescence titration; format: binding
Chain of rSTEAP1 (Six Transmembrane Epithelial Antigen of Prostate 1) (G1SWI4 43-352): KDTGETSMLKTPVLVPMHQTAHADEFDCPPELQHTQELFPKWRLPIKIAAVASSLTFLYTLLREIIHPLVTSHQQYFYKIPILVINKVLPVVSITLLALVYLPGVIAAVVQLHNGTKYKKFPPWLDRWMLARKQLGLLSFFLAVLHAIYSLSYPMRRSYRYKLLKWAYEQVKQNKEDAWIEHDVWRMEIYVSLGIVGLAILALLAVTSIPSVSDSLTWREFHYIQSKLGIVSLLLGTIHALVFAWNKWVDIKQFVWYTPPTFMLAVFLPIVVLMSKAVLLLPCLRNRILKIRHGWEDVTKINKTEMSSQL

stoichiometry N [1] | stoichiometry N [2] | Kd [3] [µM] | Compound
3 | 3 | – | rabbit STEAP1 (Six Transmembrane Epithelial Antigen of Prostate member 1) with residues 2-42 truncated (domain or fragment)
– | – | 32.3 ± 1.3 | Cc1cc2nc3c(=O)[nH]c(=O)nc-3n(C[C@H](O)[C@H](O)[C@H](O)COP(=O)(O)OP(=O)(O)OC[C@H]3O[C@@H](n4cnc5c(N)ncnc54)[C@H](O)[C@@H]3O)c2cc1C [FAD]
